This passage reports ratio to parent results from article PMC8495455, “Discovery of a transdermally deliverable pentapeptide for activating AdipoR1 to promote hair growth” (EMBO Molecular Medicine, 2021).

B1: GST-fused P5 (GLYYF) [human] / Flag-fused N-terminal-truncated AdipoR1 (residues 89-375) [human] (parent complex)
chain 1: GLYYF
chain 2: EGRWRVIPYDVLPDWLKDNDYLLHGHRPPMPSFRACFKSIFRIHTETGNIWTHLLGFVLFLFLGILTMLRPNMYFMAPLQEKVVFGMFFLGAVLCLSFSWLFHTVYCHSEKVSRTFSKLDYSGIALLIMGSFVPWLYYSFYCSPQPRLIYLSIVCVLGISAIIVAQWDRFATPKHRQTRAGVFLGLGLSGVVPTMHFTIAEGFVKATTVGQMGWFFLMAVMYITGAGLYAARIPERFFPGKFDIWFQSHQIFHVLVVAAAFVHFYGVSNLQEFRYGLEGGCTDDTLL
B2: Flag-fused N-terminal-truncated AdipoR1 (residues 89-375) [human] / GST-fused P5 (GLYYF) [human] (parent complex)
chain 1: B1 chain 2
chain 2: GLYYF

Variants of B1 are the subject of the first assay. Put plainly: GST pulldown; n = 3 technical replicates/group; parent: 1; read off a plot.
On to chain 1 GLYAF [chain 1 Y4A], for which the ratio to parent is roughly 0.12.

For chain 1 GLYDF [chain 1 Y4D], the ratio to parent was roughly 0.13.

Variants of B2 are the subject of the next assay. The description is as above.
With chain 1 EGRWRVIPYDVLPDWLKDNDYLLHGHRPPMPSFRACFKSIFRIHTETGNIWTHLLGFVLFLFLGILTMLRPNMYFMAPLQEKVVFGMFFLGAVLCLSFSWLFHTVYCHSEKVSRTFSKLDYSGIALLIMGSFVPWLYYSFYCSPQPRLIYLSIVCVLGISAIIVAQWDRFATPKHRQTRAGVFLGLGLSGVVPTMHETIAAGFVKATTVGQMGWFFLMAVMYITGAGLYAARIPERFFPGKFDIWFQSHQIFHVLVVAAAFVHFYGVSNLQEFRYGLEGGCTDDTLL [chain 1 F197E, chain 1 E201A], the ratio to parent is roughly 0.45. On the same count and under the same terms, the value for chain 1 EGRWRVIPYDVLPDWLKDNDYLLHGHRPPMPSFRACFKSIFRIHTETGNIWTHLLGFVLFLFLGILTMLRPNMYFMAPLQEKVVFGMFFLGAVLCLSFSWLFHTVYCHSEKVSRTFSKLDYSGIALLIMGSFVPWLYYSFYCSPQPRLIYLSIVCVLGISAIIVAQWDRFATPKHRQTRAGVFLGLGLSGVVPTMHETIAEGFVKATTVGQMGWFFLMAVMYITGAGLYAARIPERFFPGKFDIWFQSHQIFHVLVVAAAFVHFYGVSNLQEARYGLEGGCTDDTLL [chain 1 F197E, chain 1 F273A] was roughly 0.72; that for chain 1 EGRWRVIPYDVLPDWLKDNDYLLHGHRPPMPSFRACFKSIFRIHTETGNIWTHLLGFVLFLFLGILTMLRPNMYFMAPLQEKVVFGMFFLGAVLCLSFSWLFHTVYCHSEKVSRTFSKLDYSGIALLIMGSFVPWLYYSFYCSPQPRLIYLSIVCVLGISAIIVAQWDRFATPKHRQTRAGVFLGLGLSGVVPTMHATIAEGFVKATTVGQMGWFFLMAVMYITGAGLYAARIPERFFPGKFDIWFQSHQIFHVLVVAAAFVHFYGVSNLQEFAYGLEGGCTDDTLL [chain 1 F197A, chain 1 R274A] was roughly 0.75.

The variants in another assay derive from B2. The description is as above. This is another data set of the same source.
For chain 1 EGRWRVIPYDVLPDWLKDNDYLLHGHRPPMPSFRACFKSIFRIHTETGNIWTHLLGFVLFLFLGILTMLRPNMYFMAPLQEKVVFGMFFLGAVLCLSFSWLFHTVYCHSEKVSRTFSKLDYSGIALLIMGSFVPWLAYSFYCSPQPRLIYLSIVCVLGISAIIVAQWDRFATPKHRQTRAGVFLGLGLSGVVPTMHFTIAEGFVKATTVGQMGWFFLMAVMYITGAGLYAARIPERFFPGKFDIWFQSHQIFHVLVVAAAFVHFYGVSNLQEFRYGLEGGCTDDTLL [chain 1 Y137A], the ratio to parent was roughly 0.77.

chain 1 EGRWRVIPYDVLPDWLKDNDYLLHGHRPPMPSFRACFKSIFRIHTETGNIWTHLLGFVLFLFLGILTMLRPNMYFMAPLQEKVVFGMFFLGAVLCLSFSWLFHTVYCHSEKVSRTFSKLDYSGIALLIMGSFVPWLYYSFACSPQPRLIYLSIVCVLGISAIIVAQWDRFATPKHRQTRAGVFLGLGLSGVVPTMHFTIAEGFVKATTVGQMGWFFLMAVMYITGAGLYAARIPERFFPGKFDIWFQSHQIFHVLVVAAAFVHFYGVSNLQEFRYGLEGGCTDDTLL [chain 1 Y141A]: the ratio to parent was roughly 1. With chain 1 EGRWRVIPYDVLPDWLKDNDYLLHGHRPPMPSFRACFKSIFRIHTETGNIWTHLLGFVLFLFLGILTMLRPNMYFMAPLQEKVVFGMFFLGAVLCLSFSWLFHTVYCHSEKVSRTFSKLDYSGIALLIMGSFVPWLYASFYCSPQPRLIYLSIVCVLGISAIIVAQWDRFATPKHRQTRAGVFLGLGLSGVVPTMHFTIAEGFVKATTVGQMGWFFLMAVMYITGAGLYAARIPERFFPGKFDIWFQSHQIFHVLVVAAAFVHFYGVSNLQEFRYGLEGGCTDDTLL [chain 1 Y138A], the ratio to parent was roughly 0.65.

Variants of B2 are the subject of the next assay. Described as above. This is another data set of the same source.
chain 1 EGRWRVIPYDVLPDWLKDNDYLLHGHRPPMPSFRACFKSIFRIHTETGNIWTHLLGFVLFLFLGILTMLRPNMYFMAPLQEKVVFGMFFLGAVLCLSFSWLFHTVYCHSEKVSRTFSKLDYSGIALLIMGSFVPWLYYSFYCSPQPRLIYLSIVCVLGISAIIVAQWDRFATPKHRQTRAGVFLGLGLSGVVPTMHETIAEGFVKATTVGQMGWFFLMAVMYITGAGLYAARIPERFFPGKFDIWFQSHQIFHVLVVAAAFVHFYGVSNLQEFRYGLEGGCTDDTLL [chain 1 F197E]: the ratio to parent was roughly 0.3. The same measure, in the same setting: under chain 1 EGRWRVIPYDVLPDWLKDNDYLLHGHRPPMPSFRACFKSIFRIHTETGNIWTHLLGFVLFLFLGILTMLRPNMYFMAPLQEKVVFGMFFLGAVLCLSFSWLFHTVYCHSEKVSRTFSKLDYSGIALLIMGSFVPWLYYSFYCSPQPRLIYLSIVCVLGISAIIVAQWDRFATPKHRQTRAGVFLGLGLSGVVPTMHATIAEGFVKATTVGQMGWFFLMAVMYITGAGLYAARIPERFFPGKFDIWFQSHQIFHVLVVAAAFVHFYGVSNLQEFRYGLEGGCTDDTLL [chain 1 F197A] stands roughly 0.57.

On to chain 1 EGRWRVIPYDVLPDWLKDNDYLLHGHRPPMPSFRACFKSIFRIHTETGNIWTHLLGFVLFLFLGILTMLRPNMYFMAPLQEKVVFGMFFLGAVLCLSFSWLFHTVYCHSEKVSRTFSKLDYSGIALLIMGSFVPWLYYSFYCSPQPRLIYLSIVCVLGISAIIVAQWDRFATPKHRQTRAGVFLGLGLSGVVPTMHFTIAEGFVKATTVGQMGWFFLMAVMYITGAGLYAARIPERFFPGKFDIWFQSHQIFHVLVVAAAFVHFYGVSNLQEARYGLEGGCTDDTLL [chain 1 F273A], for which the ratio to parent was roughly 0.73. With chain 1 EGRWRVIPYDVLPDWLKDNDYLLHGHRPPMPSFRACFKSIFRIHTETGNIWTHLLGFVLFLFLGILTMLRPNMYFMAPLQEKVVFGMFFLGAVLCLSFSWLFHTVYCHSEKVSRTFSKLDYSGIALLIMGSFVPWLYYSFYCSPQPRLIYLSIVCVLGISAIIVAQWDRFATPKHRQTRAGVFLGLGLSGVVPTMHFTIAEGFVKATTVGQMGWFFLMAVMYITGAGLYAARIPERFFPGKFDIWFQSHQIFHVLVVAAAFVHFYGVSNLQEFAYGLEGGCTDDTLL [chain 1 R274A], the ratio to parent was roughly 0.83.
